From patent US20240092919A1 (Ablynx, published 2024)
Changes are numbered by the printed parent chain. Where two headings read alike, the source gives them in different places. Values belong to the binder of their own block, whether it stands above or below them.

How the values were obtained:
[1] = biological target: T1, cynomolgus CD123 on cells (cynomolgus monkey); experiment: flow cytometry on transfected cells, cynomolgus CD123 against human CD123
T1 construct: whole, on cells; also called HEK293 cyno CD123; cynomolgus CD123 transfected cell lines

[2] = biological target: T2, Cynomolgus TCR/cynomolgus CD3 complex on CHO-K1 cells (rhesus monkey (constant domains …)); experiment: flow cytometry on CHO-K1 cyTCR/cyCD3 cells; Flag3-His6-tagged ISVD, anti-FLAG M2 + PE goat anti-mouse; MFI (mean PE) [panel CHO-K1 cyTCR/cyCD3]
T2 construct: also called CHO-K1 cyTCR/cyCD3
Procedure: Next, cells were washed 3 times with FACS buffer and incubated with 1 μg/ml ANTI-FLAG® M2 Ab (Sigma, F1804) and washed again. […] Subsequently, cells were resuspended in FACS buffer supplemented with 5 nM TO-PRO®-3 Iodide to distinguish live from dead cells, which are removed during the gating procedure. Cells were analyzed using a FACS Array flow cytometer (BD Biosciences) and Flowing Software. First a P1 population which represented more than 80% of the total cell population was selected based on FSC-SSC distribution. In this gate, 10000 cells were counted during acquisition. From this population the TO-PRO®-3+ cells (dead cells) were excluded and the mean fluorescence intensity (MFI) PE value was calculated.
T2 TCR alpha: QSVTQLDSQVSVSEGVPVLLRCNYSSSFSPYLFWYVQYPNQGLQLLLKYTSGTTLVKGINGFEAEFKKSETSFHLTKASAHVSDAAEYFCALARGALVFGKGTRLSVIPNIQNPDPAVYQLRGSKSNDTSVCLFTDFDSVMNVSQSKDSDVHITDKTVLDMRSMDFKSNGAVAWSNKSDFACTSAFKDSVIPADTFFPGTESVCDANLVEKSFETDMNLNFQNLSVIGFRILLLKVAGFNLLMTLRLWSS
T2 TCR beta: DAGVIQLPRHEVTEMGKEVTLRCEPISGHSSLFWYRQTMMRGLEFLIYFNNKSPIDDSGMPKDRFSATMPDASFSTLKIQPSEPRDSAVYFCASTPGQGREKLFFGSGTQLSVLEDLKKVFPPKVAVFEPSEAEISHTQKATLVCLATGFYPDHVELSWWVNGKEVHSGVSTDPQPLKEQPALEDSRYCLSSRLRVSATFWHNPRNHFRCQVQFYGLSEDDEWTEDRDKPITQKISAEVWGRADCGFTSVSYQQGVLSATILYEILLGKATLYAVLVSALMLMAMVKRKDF
T2 chain 3: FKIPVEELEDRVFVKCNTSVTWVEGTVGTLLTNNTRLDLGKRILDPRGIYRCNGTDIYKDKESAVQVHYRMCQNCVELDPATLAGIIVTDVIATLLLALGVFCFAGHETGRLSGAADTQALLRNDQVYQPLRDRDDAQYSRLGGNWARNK
T2 chain 4: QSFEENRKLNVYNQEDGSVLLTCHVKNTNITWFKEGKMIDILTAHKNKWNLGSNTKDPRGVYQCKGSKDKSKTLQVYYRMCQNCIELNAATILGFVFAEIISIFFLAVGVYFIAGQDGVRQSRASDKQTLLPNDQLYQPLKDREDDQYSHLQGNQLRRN
T2 chain 5: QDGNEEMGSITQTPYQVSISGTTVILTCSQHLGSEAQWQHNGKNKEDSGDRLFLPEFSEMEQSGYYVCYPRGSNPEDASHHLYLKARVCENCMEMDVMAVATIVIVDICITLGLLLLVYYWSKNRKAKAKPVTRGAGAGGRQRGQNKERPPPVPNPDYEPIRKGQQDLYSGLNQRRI
T2 chain 6: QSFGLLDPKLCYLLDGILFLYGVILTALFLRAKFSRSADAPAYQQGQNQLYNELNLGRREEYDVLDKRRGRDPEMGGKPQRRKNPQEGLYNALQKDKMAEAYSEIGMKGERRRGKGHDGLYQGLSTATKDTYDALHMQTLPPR

[3] = biological target: T3, Human T cell receptor on human primary T cells (human, UniProt P01848 1-140; P01850 1-176); experiment: flow cytometry on human primary T cells; Flag3-His6-tagged ISVD, anti-FLAG M2 + PE goat anti-mouse; MFI (mean PE)
T3 construct: whole, on cells
Procedure: (§3) The ISVD variants were characterized for binding to CHO-K1 huTCR(2XN9)/huCD3 or to human and cynomolgus primary T cells. […] Next, cells were washed 3 times with FACS buffer and incubated with 1 μg/ml ANTI-FLAG® M2 Ab (Sigma, F1804) and washed again. […] Subsequently, cells were resuspended in FACS buffer supplemented with 5 nM TO-PRO®-3 Iodide to distinguish live from dead cells, which are removed during the gating procedure. Cells were analyzed using a FACS Array flow cytometer (BD Biosciences) and Flowing Software. First a P1 population which represented more than 80% of the total cell population was selected based on FSC-SSC distribution. In this gate, 10000 cells were counted during acquisition. From this population the TO-PRO®-3+cells (dead cells) were excluded and the mean fluorescence intensity (MFI) PE value was calculated.
T3 TCR alpha (looked up): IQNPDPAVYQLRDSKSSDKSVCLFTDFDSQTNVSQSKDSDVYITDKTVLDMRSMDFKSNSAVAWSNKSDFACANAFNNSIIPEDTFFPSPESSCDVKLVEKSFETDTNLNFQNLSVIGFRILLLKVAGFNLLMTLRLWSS
T3 TCR beta (looked up): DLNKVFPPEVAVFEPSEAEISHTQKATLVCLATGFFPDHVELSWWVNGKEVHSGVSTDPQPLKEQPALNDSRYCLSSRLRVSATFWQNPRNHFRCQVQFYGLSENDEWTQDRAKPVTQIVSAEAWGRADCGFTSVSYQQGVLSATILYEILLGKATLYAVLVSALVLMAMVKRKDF

[4] = biological target: T4, cynomolgus TCR on primary cynomolgus T cells (cynomolgus); experiment: flow cytometry competition on primary cynomolgus T cells; competitor Flag-tagged T017000623 at EC30
T4 construct: whole, on cells; also called cyno TCRαβ
Procedure: (§1) T cells (human T cells obtained as described in Example 3 and cyno T cells purchased from LPT laboratory, Germany) were thawed and counted on the day of the assay and diluted to a concentration of 1E+06 cells/mL, before adding 75 μL to the wells of a V-bottom 96-well plate (Greiner, cat no 651180). Cells were washed once with cold FACS buffer, before adding 25 μL Nb and 25 μL competitor to the wells. […] Cells were resuspended and plates were incubated at 4° C. for 90 minutes, after which plates were washed twice in cold FACS buffer. […] Plates were washed twice in cold FACS buffer. […] Plates were washed twice in cold FACS buffer. Cells were resuspended in 55 μL 1/1000 diluted Propidium Iodide (Sigma-Aldrich, cat no P4170) in FACS buffer before acquiring data on the MACSQuant X (Miltenyi biotec).

[5] = biological target: T5, Cynomolgus TCR(AEA41865/AEA41866)-zipper protein (cynomolgus); experiment: SPR, ProteOn XPR36; TCR-zipper protein immobilised by amine coupling
T5 construct: also called cyTCR-zipper; cyTCR(AEA41865)-zipper
T5 TCR alpha: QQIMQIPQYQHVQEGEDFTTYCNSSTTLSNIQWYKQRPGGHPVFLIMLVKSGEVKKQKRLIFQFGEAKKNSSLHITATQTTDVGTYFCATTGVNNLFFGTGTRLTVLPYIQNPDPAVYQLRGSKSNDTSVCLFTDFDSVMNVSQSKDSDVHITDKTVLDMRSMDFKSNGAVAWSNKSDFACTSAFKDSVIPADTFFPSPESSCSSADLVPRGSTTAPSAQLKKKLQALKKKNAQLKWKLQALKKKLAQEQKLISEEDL
T5 TCR beta: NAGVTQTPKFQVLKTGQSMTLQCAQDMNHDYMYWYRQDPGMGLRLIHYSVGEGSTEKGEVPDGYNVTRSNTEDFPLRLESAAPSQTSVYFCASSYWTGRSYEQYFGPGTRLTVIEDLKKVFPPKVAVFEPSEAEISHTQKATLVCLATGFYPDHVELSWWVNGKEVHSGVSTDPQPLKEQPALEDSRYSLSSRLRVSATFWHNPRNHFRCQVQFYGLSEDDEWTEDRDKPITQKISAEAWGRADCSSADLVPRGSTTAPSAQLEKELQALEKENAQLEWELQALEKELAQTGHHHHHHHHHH
Procedure: Purified ISVDs were injected for 2 minutes (flow rate 45 μL/min) at different concentrations (between 0.2 nM and 200 nM) and dissociation was followed for 900 s. Regeneration was performed by injecting 3 M MgCl₂ for 3 minutes (flow rate 90 μL/min). […] Processed sensorgrams were analyzed based on the 1:1 interaction model (Langmuir binding model) using ProteOn Manager 3.1.0 (Version 3.1.0.6) software.

[6] = biological target: T6, human TCR on primary human T cells (human, UniProt P01848 1-140; P01850 1-176); experiment: flow cytometry competition on primary human T cells; competitor Flag-tagged T017000624 at EC30
T6 construct: whole, on cells; also called human TCRαβ
T6 TCR alpha (looked up): T3 TCR alpha (looked up)
T6 TCR beta (looked up): T3 TCR beta (looked up)
Procedure: as §1

cynomolgus CD33 on cells = biological target: T7, cynomolgus CD33 on cells (cynomolgus monkey); experiment: flow cytometry on transfected cells, cynomolgus CD33 against human CD33
T7 construct: whole, on cells; also called CHO cy CD33; CHO Flp-In cynoCD33

[7] = biological target: T3, Human T cell receptor on human primary …; experiment: flow cytometry, human primary T cells
Procedure: as §3

[8] = biological target: T8, Cynomolgus TCR(AEA41865/AEA41866)-zipper protein (cynomolgus monkey); experiment: table head: SPR ProteOn XPR36; text: BLI, Octet RED384, 25 C, immobilised TCR-zipper
T8 construct: also called cyTCR-zipper protein; cynoTCR zipper
T8 TCR alpha: T5 TCR alpha
T8 TCR beta: T5 TCR beta
Procedure: (§2) Affinity constants (KD) were calculated applying a 1:1 interaction model using the ForteBio Data Analysis software.

[9] = biological target: T3, Human T cell receptor on human primary …; experiment: flow cytometry, human primary T cells
Procedure: as §3

[10] = biological target: T9, Cynomolgus TCR(AEA41865/AEA41866)-zipper protein (cynomolgus monkey); experiment: BLI (Octet RED384), KD on cyTCR-zipper against KD on huTCR-zipper
T9 construct: also called cyTCR-zipper; cynoTCR-zipper protein
T9 TCR alpha: T5 TCR alpha
T9 TCR beta: T5 TCR beta
Procedure: as §2

[11] = biological target: T9, Cynomolgus …; experiment: SPR (ProteOn XPR36), KD on cyTCR-zipper against KD on huTCR-zipper
Excerpt: (§4) HuTCR-zipper or cyTCR-zipper protein was immobilized on a GLC sensor chip (between 100-200 RU) via amine coupling chemistry, using EDC/NHS for activation of the carboxyl groups on the chip surface (running buffer: HBS-EP+, pH7.4). […] Processed sensorgrams were fitted with the Langmuir model (1:1 interaction) using ProteOn Manager 3.1.0 (Version 3.1.0.6) software.

[12] = biological target: T8, Cynomolgus …; experiment: higher koff divided by lower koff, humanTCR zipper vs cynoTCR zipper (SPR)
[13] = biological target: T8, Cynomolgus …; experiment: SPR, ProteOn XPR36, 25 C, immobilised TCR-zipper
Excerpt: as §4

[14] = biological target: T9, Cynomolgus …; experiment: SPR (ProteOn XPR36, 37°C), KD on huTCR-zipper against KD on cyTCR-zipper
[15] = biological target: T8, Cynomolgus …; experiment: SPR off-rate, ProteOn XPR36, immobilised TCR-zipper

B5: T0170056G05 (VHH, not shown: small tags and cut ends)
VHH: EVQLVESGGGLVQPGGSLRLSCVASGDVHKINFLGWYRQAPGKEREKVAHISIGDQTDYADSAKGRFTISRDESKNMVYLQMNSLKPEDTAVYFCRAFSRIYPYDYWGQGTLVTVSS
notes: also called T01700056G05; parental anti-TCR ISVD
EC50 [7]: 140 nM | Kd [8]: 170 nM | EC50 [9]: 83 nM

B6: T0170056G05 (VHH, not shown: small tags and cut ends)
VHH: B5 VHH
notes: as for B5
difference in human-cynomolgus cross-reactivity based on KD [10]: 4.5 fold

B7: T017000624 (VHH, not shown: small tags and cut ends)
VHH: B5 VHH with L11V, D27Y, L34Y, M77T, K86R, V92L, F94Y, F98L, Y102W
difference in human-cynomolgus cross-reactivity based on KD [11]: 2.6 fold

B8: T017000141 (VHH, not shown: small tags and cut ends)
VHH: B5 VHH with L11V, K86R, V92L
EC50 [7]: 100 nM | Gap in off-rate human vs cyno [12]: 12.4 fold | Kd [13]: 220 nM

B9: T017000680 (VHH)
VHH: B5 VHH with E1D, L11V, D27Y, L34Y, M77T, K86R, V92A, F94Y, F98L, Y102W
delta for human-cynomolgus cross-reactivity based on KD [14]: 1.8 fold

B11: T017000624 (VHH, not shown: small tags and cut ends)
VHH: B5 VHH with L11V, D27Y, L34Y, M77T, K86R, V92L, F94Y, F98L, Y102W
EC50 [7]: 46 nM | Gap in off-rate human vs cyno [12]: 4.5 fold | Kd [13]: 6.3 nM | EC50 [9]: 45 nM

Results, then the binder that gave them:

difference in EC50 between human and cynomolgus monkey [1]: 3 fold
B1: monovalent CD123 building block (VHH)
VHH: EVQLVESGGGVVQPGGSLRLSCAASGVIFSGNVMGWYRRQAPGKEREWVAAIAEGGSILYRDSVKGRFTISRDNAKNTVYLQMNSLRPEDTALYYCNSHPPVLPYWGQGTLVTVSS

binding result [2]: no binding (tested: 3e-6 M) | binding result [3]: no binding (tested: 3e-6 M)
B2: cAbLys3 (VHH, not shown: small tags and cut ends)
VHH: DVQLQASGGGSVQAGGSLRLSCAASGYTIGPYCMGWFRQAPGKEREGVAAINMGGGITYYADSVKGRFTISQDNAKNTVYLLMNSLEPEDTAIYYCAADSTIYASYYECGHGLSTGGYGYDSWGQGTQVTVSS
notes: also called irrelevant anti-egg lysozyme ISVD

IC50 [4]: 250 nM | Kd [5]: 11 nM | IC50 [6]: 190 nM
B3: T017000698 (bispecific antibody)
chain: DVQLVESGGGVVQPGGSLRLSCVASGYVHKINFYGWYRQAPGKEREKVAHISIGDQTDYADSAKGRFTISRDESKNTVYLQMNSLRPEDTAAYYCRALSRIWPYDYWGQGTLVTVSSGGGGSGGGSEVQLVESGGGVVQPGGSLRLSCAASGFTFRSFGMSWVRQAPGKGPEWVSSISGSGSDTLYADSVKGRFTISRDNSKNTLYLQMNSLRPEDTALYYCTIGGSLSRSSQGTLVTVSSA
notes: also called T017000680-9GS-ALB23002-A; TCE01-9GS-ALB23002-A

difference in EC50 between human and cynomolgus monkey (cynomolgus CD33 on cells): < 2 fold
B4: monovalent CD33 building block (VHH)
VHH: EVQLVESGGGVVQPGGSLRLSCAASGGVFRLNSMGWFRQAPGKQRELVAIITSDGDTNYADSVKGRFTISRDQAKNTVYLQMNSLRPEDTALYYCQITYSTSSYSFPINTWGQGTLVTVSS

koff [15]: 0.00427 s⁻¹
B10: T017000687 (VHH, not shown: small tags and cut ends)
VHH: B5 VHH with L11V, D27S, K30Q, L34Y, M77T, K86R, V92L, F94Y, F98L, Y102W
